One molecule from US20230374088A1 can be followed below.

The assay concerns the target T1, Gli2-ZF-SNAP (human), P10070.
T1 chain: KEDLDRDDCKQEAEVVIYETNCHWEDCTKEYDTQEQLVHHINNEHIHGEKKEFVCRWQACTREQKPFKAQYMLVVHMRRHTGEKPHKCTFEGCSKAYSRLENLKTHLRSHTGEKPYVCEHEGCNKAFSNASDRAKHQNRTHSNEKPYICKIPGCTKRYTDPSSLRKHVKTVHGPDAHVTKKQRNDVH
In words: TIRF microscopy; 100 nM Gli2-ZF-SNAP-Alexa647 with 100 nM kinesin on microtubules. The conditions noted are these: remark: other sources report otherwise.

B1: Kif7-MM (monomeric Kif7 motor domain, 1-386aa), Q2M1P5 1-386 (protein)
chain: MGLEAQRLPGAEEAPVRVALRVRPLLPKELLHGHQSCLQVEPGLGRVTLGRDRHFGFHVVLAEDAGQEAVYQACVQPLLEAFFEGFNATVFAYGQTGSGKTYTMGEASVASLLEDEQGIVPRAMAEAFKLIDENDLLDCLVHVSYLEVYKEEFRDLLEVGTASRDIQLREDERGNVVLCGVKEVDVEGLDEVLSLLEMGNAARHTGATHLNHLSSRSHTVFTVTLEQRGRAPSRLPRPAPGQLLVSKFHFVDLAGSERVLKTGSTGERLKESIQINSSLLALGNVISALGDPQRRGSHIPYRDSKITRILKDSLGGNAKTVMIACVSPSSSDFDETLNTLNYASRAQNIRNRATVNWRPEAERPPEETASGARGPPRHRSETRIIH
modifications: here or on the partner: Alexa 647 dye on the SNAP tag in the TIRF assays
Molecule B1 showed a fold Gli2-ZF Alexa-647 intensity on microtubules over Gli alone of 3 fold.
